Experiment [1] concerns the target FITC-labelled dipeptide (FITC-L-Ala-D-Glu). Nature of the experiment: fluorescence polarisation; FITC-labelled dipeptide at 9.2 nM, Csd5 titrated from 17.0 nM to 17.4 µM, 10 mM HEPES pH 7.5, 100 mM sodium chloride.
In experiment [2] the target is T1, Csd5 (Helicobacter pylori, UniProt O25843).
T1 construct: gene HP_1250
Kind of experiment: fluorescence polarization. The class given is binding. Conditions: labelled compound; 9.2 nM FITC-dipeptide, 10 mM HEPES pH 7.5, 100 mM NaCl. A general note: Polarisation of emitted light reports the rotation of a fluorescent probe.

Experiment [3] addresses T2, Helicobacter pylori Csd4 (HP1075 in strain 26695), recombinant, residues Met22-Val438 (Helicobacter pylori strain 26695, UniProt O25708 22-438).
T2 construct: Csd4 (HP1075) from H. pylori strain 26695, residues Met22-Val438; the N-terminal 19 residues are a predicted signal peptide and are not in the construct; No cleavage of the tag is described; also called D,L-carboxypeptidase; source: E. coli Rosetta2(DE3), purified (HiTrap Chelating HP, HiTrap SP HP, Superdex 200)
T2 sequence (looked up): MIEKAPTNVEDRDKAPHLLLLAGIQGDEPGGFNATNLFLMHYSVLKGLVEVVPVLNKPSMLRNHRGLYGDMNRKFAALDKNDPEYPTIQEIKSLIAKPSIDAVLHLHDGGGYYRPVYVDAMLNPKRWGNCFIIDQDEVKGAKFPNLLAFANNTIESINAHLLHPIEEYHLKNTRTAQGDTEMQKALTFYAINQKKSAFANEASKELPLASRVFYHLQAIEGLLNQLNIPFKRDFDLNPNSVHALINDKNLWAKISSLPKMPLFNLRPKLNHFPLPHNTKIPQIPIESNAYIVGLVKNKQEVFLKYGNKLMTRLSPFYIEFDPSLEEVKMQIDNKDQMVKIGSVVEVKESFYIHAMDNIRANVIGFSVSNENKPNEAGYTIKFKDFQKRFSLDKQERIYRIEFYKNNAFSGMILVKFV
Kind of experiment: SPR; as a1, EDTA-treated Csd4-immobilised chip retreated with running buffer containing 5 mM calcium chloride. Conditions: both partners purified. In general terms: In SPR one partner is held on a chip, and binding of the other changes the refractive index at the surface.

For experiment [4], the target named is T2, Helicobacter pylori Csd4 (HP1075 in …). Nature of the experiment: SPR; Csd4 immobilised by amine coupling on a carboxymethyl dextran chip, Csd5 as analyte (0.25-2.00 µM), 10 mM HEPES pH 7.5, 100 mM sodium chloride, 25°C; BSA reference subtracted. The note with it: both partners purified.

Where no end group is shown, it is not given here. [ ]: non-standard residue; d: D form. The star is where a group is joined. FITC = O=C1OC2(c3ccc(O)cc3Oc3cc(O)ccc32)c2ccc(NC(=S)*)cc21

A word on the Kd: it is the free concentration of one partner at which half of the binding sites on the other are occupied at equilibrium, for simple one-to-one binding.

In experiment [1], “Helicobacter pylori Csd5 (HP1250 in strain 26695), N-terminal 40-residue-truncated construct, residues Ser41-Glu192 (from UniProt O25843 41-192) (domain or fragment)” gave a Kd of 1690 nM.

Turning to {FITC}-Ala-[dE], the Kd in experiment [2] is about 1690 nM.

B1: Helicobacter pylori Csd5 (HP1250 in strain 26695), N-terminal 40-residue-truncated construct, residues Ser41-Glu192 (domain or fragment, Helicobacter pylori strain 26695, UniProt O25843 41-192, looked up)
chain: SAPISPNVEKTETERQNGVLSPKQEEANATTTATEESPTKDTAPPLDTAAQKQETKQEQEKENEPKQDSVPPVQNNQKTPTTPLMGKKPLEYKVAVSGVNVRAFPSTKGKILGLLLKNKSVKVLEIQNDWAEIEFSHETKGYVFLKLLKKAE
notes: Csd5 (HP1250) from H. pylori strain 26695, residues Ser41-Glu192; lacks the predicted transmembrane region (Pro15-Val37); No cleavage of the tag is described; source: E. coli, overexpressed and purified essentially as Csd4 (gel filtration in 10 mM HEPES pH 7.5, 100 mM sodium chloride)
Take B1: the Kd is about 4300 nM in experiment [3] and about 4500 nM in experiment [4].
